From patent publication US20120107297A1 (KOREA RESEARCH INSTITUTE OF BIOSCIENCE AND BIOTECHNOLOGY, published 2012)

B1: UCP (endogenous E2EPF ubiquitin carrier protein) (enzyme, human, UniProt Q16763 1-222, looked up)
chain: MNSNVENLPPHIIRLVYKEVTTLTADPPDGIKVFPNEEDLTDLQVTIEGPEGTPYAGGLFRMKLLLGKDFPASPPKGYFLTKIFHPNVGANGEICVNVLKRDWTAELGIRHVLLTIKCLLIHPNPESALNEEAGRLLLENYEEYAARARLLTEIHGGAGGPSGRAEAGRALASGTEASSTDPGAPGGPGGAEGPMAKKHAGERDKKLAAKKKTDKKRALRRL
notes: Endogenous protein in cell lysates; also called E2EPF-UCP; endogenous UCP
B2: Elongin B (endogenous) (other, human, UniProt Q15370 1-118, looked up)
chain: MDVFLMIRRHKTTIFTDAKESSTVFELKRIVEGILKRPPDEQRLYKDDQLLDDGKTLGECGFTSQTARPQAPATVGLAFRADDTFEALCIEPFSSPPELPDVMKPQDSGSSANEQAVQ

What was measured:
[1] = molecular target: T1, VHL E3 ligase complex (comprising VHL, Elongin B, Elongin C and Rbx1) (human, UniProt P40337 1-213; Q15370 1-118; Q15369 1-112; P62877 1-108); assay: sucrose density gradient centrifugation of cell lysate, Western blot of fractions
T1 construct: also called VHL E3 ubiquitin ligase complex
T1 sequence (P40337 whole entry, chain 1 of 3): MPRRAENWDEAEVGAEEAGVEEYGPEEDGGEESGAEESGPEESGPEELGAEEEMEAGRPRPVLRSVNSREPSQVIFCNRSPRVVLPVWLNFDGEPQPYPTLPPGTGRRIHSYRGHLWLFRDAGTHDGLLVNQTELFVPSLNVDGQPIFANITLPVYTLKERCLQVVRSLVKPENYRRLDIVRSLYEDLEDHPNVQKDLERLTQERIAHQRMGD
T1 sequence (Q15369 whole entry, chain 3 of 3): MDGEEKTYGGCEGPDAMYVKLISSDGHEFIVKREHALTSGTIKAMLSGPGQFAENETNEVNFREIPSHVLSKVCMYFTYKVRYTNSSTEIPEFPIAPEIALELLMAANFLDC
T1 sequence (P62877 whole entry, chain 4 of 3): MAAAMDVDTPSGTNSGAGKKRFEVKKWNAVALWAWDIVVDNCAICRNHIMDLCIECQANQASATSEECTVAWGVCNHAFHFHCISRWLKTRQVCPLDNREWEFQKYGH
Method: (§1) CAKI (kidney cancer cell line) or HepG2 (liver cancer cell line) cells were collected from 10 100 mm culture dishes and frozen at −70° C. The frozen cells were lysed in 0.5 ml of a cell lysis buffer (50 mM Tris, 0.5 mM EDTA, 50 mM KCl, 10% glycerol, 1 mM DTT, 0.5% NP-40, 0.5 mM PMSF). The cell lysate was loaded in 10 ml of 5%-20% sucrose density gradient solution, followed by ultra-centrifugation at 35,000 rpm for 16 hours.

[2] = molecular target: Rbx1 (endogenous) (human, UniProt P62877 1-108); assay: summary sentence citing FIG. 7 and FIG. 8b
Sequence of Rbx1 (endogenous) (P62877 whole entry): as the sequence (P62877 whole entry, chain 4 of 3) above
Method: as §1

[3] = molecular target: Elongin C (endogenous) (human, UniProt Q15369 1-112); assay: summary sentence citing FIG. 7 and FIG. 8b
Sequence of Elongin C (endogenous) (Q15369 whole entry): as the sequence (Q15369 whole entry, chain 3 of 3) above
Method: as §1

[4] = molecular target: B1; assay: summary sentence citing FIG. 7 and FIG. 8b
Method: as §1

Row | binding result [1] | binding result [2] | binding result [3] | binding result [4] | Binder
1 | no binding | no binding | no binding | – | B1
2 | – | – | – | no binding | B2
